Data reported in PMC12649849.

Biological target: Protein A on the ProA BLI sensor (Staphylococcus aureus) (UniProt P38507)
Assay: BLI

ChromPure mouse IgG (whole molecule) (antibody)
koff: 0.00121 s⁻¹ | kon: 92500 M⁻¹ s⁻¹
